B1: CK2α′ as the active (activation) domain fusion (natural protein)
chain: MPGPAAGSRARVYAEVNSLRSREYWDYEAHVPSWGNQDDYQLVRKLGRGKYSEVFEAINITNNERVVVKILKPVKKKKIKREVKILENLRGGTNIIKLIDTVKDPVSKTPALVFEYINNTDFKQLYQILTDFDIRFYMYELLKALDYCHSKGIMHRDVKPHNVMIDHQQKKLRLIDWGLAEFYHPAQEYNVRVASRYFKGPELLVDYQMYDYSLDMWSLGCMLASMIFRKEPFFHGQDNYDQLVRIAKVLGTDELYGYLKKYHIDLDPHFNDILGQHSRKRWENFIHSENRHLVSPEALDLLDKLLRYDHQQRLTAKEAMEHPYFYPVVKEQSQPCAENTVLSSGLTAAR

Legend:
Experiment in all cases: two-hybrid
BD-CK2β = BD-CK2β (UniProt P67871)
[1] = target: GAL4-DB-CK2α′ fusion protein (mouse) (UniProt O54833)
BD-CK2α = BD-CK2α (UniProt Q60737)
BD-CKT2 (mouse) = BD-CKT2 (mouse) (UniProt Q8CH19)
BD-CKT2 138-276 (mouse) = BD-CKT2 138-276 (mouse) (UniProt Q8CH19)
BD-CKT2 1-137 (mouse) = BD-CKT2 1-137 (mouse) (UniProt Q8CH19)

UniProt P67871, sequence (P67871 whole entry, the tested form may be a part): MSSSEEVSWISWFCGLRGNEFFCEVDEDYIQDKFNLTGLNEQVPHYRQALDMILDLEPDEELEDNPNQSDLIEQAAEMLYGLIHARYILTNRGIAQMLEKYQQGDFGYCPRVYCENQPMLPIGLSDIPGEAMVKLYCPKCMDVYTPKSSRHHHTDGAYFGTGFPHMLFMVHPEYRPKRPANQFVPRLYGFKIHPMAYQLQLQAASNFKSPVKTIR
UniProt Q60737, sequence (Q60737 whole entry): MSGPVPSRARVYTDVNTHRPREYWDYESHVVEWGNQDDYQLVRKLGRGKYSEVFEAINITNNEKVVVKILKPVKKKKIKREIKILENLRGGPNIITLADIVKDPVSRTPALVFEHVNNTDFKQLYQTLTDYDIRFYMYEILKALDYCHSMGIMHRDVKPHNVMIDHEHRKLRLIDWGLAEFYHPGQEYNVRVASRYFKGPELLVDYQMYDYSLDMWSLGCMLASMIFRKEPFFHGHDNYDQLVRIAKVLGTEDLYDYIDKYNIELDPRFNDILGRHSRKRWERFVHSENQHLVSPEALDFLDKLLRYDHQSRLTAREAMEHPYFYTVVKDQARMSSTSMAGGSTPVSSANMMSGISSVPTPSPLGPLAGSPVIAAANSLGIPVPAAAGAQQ

Molecule | β-Gal activity (BD-CK2β) | β-Gal activity [1] | β-Gal activity (BD-CK2α) | β-Gal activity (BD-CKT2 (mouse)) | β-Gal activity (BD-CKT2 138-276 (mouse)) | β-Gal activity (BD-CKT2 1-137 (mouse))
CKT2 (CK2 Target protein 2), full length, in pACT2 (from UniProt Q8CH19 1-720) (natural protein) | < 0.05 | 5.8 | 1 | – | – | –
B1 | – | – | – | 5.2 | 6.5 | 2.8

— PMC2677865
